Numbering of substitutions follows the chain as printed. “And” between values parts separate entries of the source, which are not always exact repeats. Identical values can stand only once.
B1: anti-TMEM106B antibody TM-52 (antibody, V domains shown)
VH: QVQLQQPGAELVKPGASVKLSCKASGYTFTNYWMHWVKQRPGQGLDWIGNIDPSDSETHYNQKFKDKATLTVDKVSSTAYMQLSSLTSEDSAVYYCARRGYYGRSPFAYWGQGTLVTVSA
VL: ENVLTQSPAIMSASPGEKVTMTCSASSSVSYMHWYQQKSNTSPKLWIYDTSKLASGVPGRFSGSGSGNSYSLTISSAEAEDVATYYCFQGSGYPLTFGAGTKLELK
notes: mouse IgG from hybridoma
B2: anti-TMEM106B antibody TM-1 (antibody, V domains shown)
VH: QVQLQQSGAELVRPGTSVKVSCKASGYAFTNYLIEWVKQRPGQGLEWIGVINPGSGGTKYNEKLKGKATLTADKSSSTAYMQLSSLTSVDSAVYFCARRGYTIYDFYAMDYWGQGTSVTVSS
VL: DVLMTQTPLSLPVSLGDHASISCRSSQSIVYNNGNTYLEWYLQKPGQSPKLLIYKVSNRFSGVPDRFSGSGSGTDFTLKISRVEAEDLGVYYCFQVSHVPFTFGSGTKLEIK
B3: anti-TMEM106B antibody TM-19 (antibody, V domains shown)
VH: DVQLQQSGAELVRPGASVKLSCTASGFNIKDYYMYWVKQRPEQGLEWIGRIDPEDGDTENAPKFRGMATMTADTSSNTAYLQLNSLTSEDTAVYYCTTRIGNLYHVMDYWGHGTSVTVSS
VL: B2 VL with H18Q, Y31H, N32S, S48A, Y54D, S57F, V96G
B4: anti-TMEM106B antibody TM-22 (antibody, V domains shown)
VH: QVQLQQSGPELVKPGASVKISCKASGYRFTSYYIHWVKQRPGQGLEWIGWIYPGNGITNYNEKFKGKATLTADTSSSTAYMQLSSLTSEDSAVYYCASPYYGIRNCYFDVWGTGTTVTVSS
VL: B2 VL with S26G, Y31H, N32S, V90I, V96G, F101W, S105G
B5: anti-TMEM106B antibody TM-18 (antibody, V domains shown)
VH: EVRLQQSGPELVKPGASVKISCKTSGYTFTDYYMNWVKQSHGKSLEWIVNINPNNGDAFYNQKFKGKATLTVDKSSNTAYLDLRSLTSEDSAVYYCAREGQLRLRRVYAMDYWGQGTSVTVSS
VL: DIVLAQSPASLAVSLGQRATISCRASKSVSISVYTYVHWYQQKPGQPPKLLIYLASNLESGVPARFSGSGSGTDFTLNIHPVEEEDAATYYCQHSRELPYTFGGGTKLEIK
B6: anti-TMEM106B antibody TM-2 (antibody, V domains shown)
VH: HIQLVQSGPELKKPGETVKISCKASGYTFTEYPMHWVKQAPGKGFRWMGMIYTNTGEPTYAAEFKGRFAFSLETSASTGYLQINNLKNEDSATYFCVTAGYWGQGTLVTVSA
VL: QIVLTQSPAILSASPGEKVTMTCRASSSVSYIHWFLQKPGSSPKPWIYATSNLASGVPFRFIGSGSGTSYSLTISGVEAEDSATYYCQQWSSNPSTFGAGTKLELK
B7: anti-TMEM106B antibody TM-50 (antibody, V domains shown)
VH: QVQLKESGPVLVAPSQSLSITCTVSGFSLTNYGVHWVRQPPGKGLEWLGVIWAGGNTNYNSALMSRLSISKDNSKSQVFLKMNSLQTDDTAMYYCAKEAKLLRSYAMDYWGQGTLVTVSA
VL: DVQMTQTTSSLSASLGDRVTISCRASQDINNYLYWYQQKPDGTVKLLIYYTSMLHSGVPSRFSGSGSGTDYSLTISNLEQEDIATYFCQQGSTLMYTFGGGTKLEIK
notes: mouse IgG from hybridoma
B8: anti-TMEM106B antibody TM-49 (antibody, V domains shown)
VH: QVQLQQPGAELVRPGSSVKLSCKASGYTFTRFWMHWVKQRPIQGLEWIGNIDPSDSQTHYNQKFKDKATLTVDKSSSTAYMQLSSLTSEDSAVYYCARLITVDYAMDYWGQGTSVTVSS
VL: QIVLTQSPAIMSASPGEKVTISCSASSSVSYMYWYQQKPGSSPKPWIHRTSNLASGVPVRFSGSGSGTSYSLTISSMEAEDAATYYCQQYHSYPPTFGAGTKLELK
notes: mouse IgG from hybridoma

Molecular target: T1, human TMEM106B (human, UniProt Q9NUM4 2-274)
T1 construct: Full-length, on transiently transfected HEK293 cells, or natively expressed on HeLa, U251 and A549 cells; also called huTMEM106B; huTMEM
Experiment: FACS A549
Method: (§1) All cells were cultured in either T75 or T150 flasks. […] The enzyme was quenched by addition of fresh media, and the cells were then distributed into 96-well plates for FACS analysis.
(§2) FACS analysis was performed as follows. Each cell type was aliquoted in 96-well round bottom plates (2x10^5 cells per well), washed once with FACS buffer (PBS + 2% FBS + 1 mM EDTA), and incubated with 50 µL of hybridoma supernatant or purified antibody (10 µg/ml in FACS buffer) on ice for 1 hour. […] Following this secondary incubation, the cells were again washed 2x with ice-cold FACS buffer and resuspended in a final volume of 50 µL of FACS buffer + 0.25 µl/well propidium iodide (Fisher Scientific # BDB556463). Analysis was performed on a FACSCanto system (BD Biosciences) or iQue (Intellicyt), with sort gates drawn to exclude dead (i.e., propidium iodide positive) cells.
(§3) Data is presented as mean fluorescence intensity (MFI).

In order of rising MFI:
1. B7  580
2. B8  924
3. B1  987
4. B2  1460
5. B5  1490
6. B4  1570
7. B3  1820
8. B6  1890

Molecular target: T1, human TMEM106B
Experiment: FACS HeLa;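 note: flow cytometry of cells incubated with hybridoma supernatant or purified antibody at 10 µg/ml for 1 h on ice, propidium iodide–positive dead cells gated out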
Method: as §1, §2, §3

In order of falling MFI:
1. B6  2530
2. B3  2430
3. B5  1920
4. B4  408
5. B2  253
6. B1  227
7. B8  187
8. B7  159

Molecular target: T1, human TMEM106B
Experiment: FACS U251;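 note: flow cytometry of cells exposed to antibody (purified at 10 µg/mL, or hybridoma supernatant) for 1 h on ice, with propidium iodide-positive dead cells gated out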
Method: as §1, §2, §3

In order of falling MFI:
1. B6  1410
2. B3  878
3. B5  874
4. B8  434
5. B1  341
6. B4  313
7. B7  260
8. B2  244

Molecular target: T2, mouse TMEM106B (mouse, UniProt Q80X71 2-275)
T2 construct: on transiently transfected HEK293 cells, or natively expressed on mouse Neuro2a cells; also called moTMEM106B; murine TMEM106B
Experiment: FACS Neuro2a;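 note: flow cytometry of cells stained with antibody or hybridoma supernatant (purified antibody at 10 µg/ml) for 1 h on ice, propidium iodide–positive dead cells gated out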
Method: as §1, §2, §3

In order of rising MFI:
1. B1  210
2. B2  253
3. B7  257
4. B8  291
5. B4  400
6. B5  1930
7. B3  2140
8. B6  2900

Molecular target: T3, GST (Pierce) (UniProt P08515 1-218 = GST, limits assumed)
T3 construct: control for the GST part of the fusion protein; also called GST protein; Glutathione-S-transferase
Experiment: ELISA, coated GST;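 note: ELISA on plates coated with GST alone at 1-10 µg/ml, antibodies applied at 100-1000x dilution, bound antibody detected by peroxidase substrate colour after acid stop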

B2: no binding.
B3: no binding.
B4: no binding.
B5: no binding.
B6: no binding.

Molecular target: T4, GST-fusion human TMEM106B truncated (human)
T4 construct: also called GST-TMEM106B-truncated protein; GST-TMEM106B (truncated)
Experiment: ELISA, supernatant
Method: Briefly, 96-well polystyrene plates were coated with 1-10 µg/ml of recombinant GST-TMEM106B-truncated protein or GST (Pierce) in PBS either at 370 Cfor 1-4 hours or overnight at 4 °C. Coated plates were then blocked with 5% BSA for 1-hour, washed 3×150 µL in TBST (Tris-buffered saline + 0.1% Tween20), and then the antibodies were added at various dilutions (100-1000x) in PBS. After 1-hour incubation (room temperature, with shaking), the plates were washed 3x150 µL in TBST. […] After a final set of washes (3×150µL in TBST), 100 µL of peroxidase substrate was added for 1 minute; the reaction was then quenched with 2N sulfuric acid (100 µL).

B3: binds.
B4: binds.

Molecular target: T1, human TMEM106B
Experiment: FACS A549, 1 ug/ml

In order of rising MFI:
1. B2  364
2. B7  381
3. B4  399
4. B1  401
5. B8  473
6. B6  1090
7. B5  2620
8. B3  3640

Molecular target: T1, human TMEM106B
Experiment: FACS A549, 10 ug/ml

In order of falling MFI:
1. B5  5190
2. B3  4960
3. B6  3360
4. B8  613
5. B4  478
6. B7  445
7. B1  443
8. B2  409

Molecular target: T4, GST-fusion human TMEM106B truncated
Experiment: array SPR, Ab immobilised;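 for koff: antibodies amine-coupled on an MX-96 chip, antigen flowed at 500 nM top concentration in 5-fold serial dilutions, GST alone run as nonspecific-binding control, duplicate measurements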;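 for kon: antibodies amine-coupled on an MX-96 chip, antigen flowed at 500 nM top concentration in 5-fold serial dilutions, GST alone run as nonspecific-binding control, duplicate measurements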

B6 gave a Kd of ~1 nM.

Molecular target: T3, GST (Pierce)
Experiment: array SPR, Ab immobilised;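 for koff: antibodies amine-coupled on an MX-96 chip, antigen flowed at 500 nM top concentration in 5-fold serial dilutions, GST alone run as nonspecific-binding control, duplicate measurements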

B1: no binding.
B7: no binding.
B8: no binding.

Molecular target: T1, human TMEM106B
Experiment: FACS, HEK293 transfectants;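 for fold over negative controls: hybridoma supernatants incubated 30 min on ice with human TMEM106B-expressing HEK293 cells, binding read as anti-mouse-APC median fluorescence on live cells, relative to secondary-antibody-only wells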;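 for fold-change over parental HEK293: flow cytometry binding of hybridoma supernatants to HEK293 cells transiently expressing human, cyno or mouse TMEM106B, read as anti-mouse-APC median fluorescence, live cells only, 30 min on ice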
Method: Initial screening of the anti-TMEM106B hybridomas was performed as follows.
For screening of the hybridoma cell culture supernatants, humanTMEM106B-transfected HEK293 cells were aliquoted in 96-well round bottom plates (2x10^5 cells per well) and incubated with 50 µL of hybridoma cell culture supernatant on ice for 30 minutes. […] Cell sorting was performed on a FACS Canto system (BD Biosciences) or iQue (Intellicyt), with sort gates drawn to exclude dead (i.e., propidium iodide-positive) cells. Median fluorescence intensity (MFI) of anti-mouse-APC MFI on TMEM106B+ HEK293 cells was calculated for each clone, and those displaying a signal of at least 2-fold over background compared to a secondary-antibody only well were taken forward for further analysis and characterization.

B1 and B2 cannot be ordered by “fold over negative controls” value: > 2 fold for the first, > 2 fold for the second.

B3 and B5 cannot be ordered by “fold over negative controls” value: > 2 fold for the first, > 2 fold for the second.

B6 and B7 cannot be ordered by “fold over negative controls” value: > 2 fold for the first, > 2 fold for the second.

For B8, the “fold over negative controls” value was > 2 fold.

Molecular target: T4, GST-fusion human TMEM106B truncated
Experiment: array SPR, Ab immobilised;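 for koff: antibodies amine-coupled on an MX-96 chip, antigen flowed at 500 nM top concentration in 5-fold serial dilutions, GST alone run as nonspecific-binding control, duplicate measurements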
Remark: another data set of the same source
Method: Binding kinetic characterization of the purified antibodies was performed by Carterra using a proprietary array SPR instrument (MX-96) as follows. Briefly, antibodies were prepared by diluting to 5 µg/ml in 10 mM Acetate, pH 4.5 (Carterra), at 150 µL/well and then made an additional dilution at 1:10 from there by titrating 11 µl into 100 µL. […] The chip was activated with 18 mM EDC (Sigma Bioxtra) and 4.5 mM S-NHS (Thermo Fisher) diluted in 100 mM MES, pH 5.5, for 7 minutes, and then antibodies were coupled for 10 minutes at 45 µL/minute. After coupling, the chip was returned to the MX-96 and quenched for 7 minutes using 1 M Ethanolamine pH 8.5 (Carterra).
Printed antibodies were profiled for their ability to bind GST-TMEM106B (truncated) protein (described above). Briefly, GST-TMEM106B (truncated) antigen was diluted to 18 µg/ml (500 nM of 36 kDa fusion protein) by mixing 2.7 µL of 2.0 mg/ml antigen into 298 µL Running buffer (HBS-EP+, Teknova with 1 mg/ml BSA, Sigma), and titrated 50 µl into 200 µl for 5-fold serial dilutions. In addition, binding to GST (Pierce) was assayed under the same conditions to determine the extent of any nonspecific binding of the anti-TMEM106B antibodies to GST portion of the TMEM106B-GST fusion protein. Duplicate measurements for each anti-TMEM106B antibody were taken to ensure reproducibility.

B2 was tested, and the Kd was 14 nM and 13 nM.
In the case of B5, the Kd is reported as 7.3 nM and 11 nM.
B6 was tested, and the Kd was 0.9 nM and 1.2 nM.

B2 was tested, and the koff was 0.00057 s⁻¹ and 0.00069 s⁻¹.
B5 was tested, and the koff was 7.2e-05 s⁻¹ and 9.4e-05 s⁻¹.
In the case of B6, the koff is reported as 1.1e-05 s⁻¹ and 1e-05 s⁻¹.

B2 was tested, and the kon was 40000 M⁻¹ s⁻¹ and 52000 M⁻¹ s⁻¹.
For B5, the kon was 9900 M⁻¹ s⁻¹ and 8500 M⁻¹ s⁻¹.
For B6, the kon was 12000 M⁻¹ s⁻¹ and 8300 M⁻¹ s⁻¹.

Molecular target: T1, human TMEM106B
Experiment: FACS HEK+huTMEM, 10 ug/ml;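 note: purified mouse IgG antibodies at 10 µg/ml bound to HEK293 cells transiently expressing human TMEM106B, measured by flow cytometry as median fluorescence intensity of propidium iodide negative live cells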
Method: (§4) Purified anti-TMEM106B antibodies were evaluated for their binding affinity to various TMEM106B-expressing cell lines including HEK293 transiently transfected with human/cyno/mouse TMEM106B, as well as HeLa cells and A549 cells. Antibodies tested for this experiment were mouse IgGs purified from hybridoma supernatant. Affinity binding to cells was determined as follows. Briefly, 1x10^5 cells were aliquoted per well in 96-well round bottom plates and incubated with 50 µL of purified anti-TMEM106B antibody at various concentrations (10x dilutions starting at 10 µg/ml) in FACS buffer (PBS + 2% FBS + 1 mM EDTA). […] Sorting was performed on a iQue (Intellicyt), with sort gates drawn to exclude dead (propidium iodide +) cells. Binding data was analyzed using median fluorescent intensity (MFI) and graphed in Prism. Values presented are MFI.

In order of falling MFI:
1. B3  79000
2. B5  71700
3. B6  55500
4. B8  16500
5. B1  7020
6. B4  3580
7. B2  2380
8. B7  396

Molecular target: T1, human TMEM106B
Experiment: FACS, HEK293 transfectants;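 for fold over negative controls: hybridoma supernatants incubated 30 min on ice with human TMEM106B-expressing HEK293 cells, binding read as anti-mouse-APC median fluorescence on live cells, relative to secondary-antibody-only wells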;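 for fold-change over parental HEK293: flow cytometry binding of hybridoma supernatants to HEK293 cells transiently expressing human, cyno or mouse TMEM106B, read as anti-mouse-APC median fluorescence, live cells only, 30 min on ice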
Remark: another data set of the same source
Method: (§5) For screening of the hybridoma cell culture supernatants, humanTMEM106B-transfected HEK293 cells were aliquoted in 96-well round bottom plates (2x10^5 cells per well) and incubated with 50 µL of hybridoma cell culture supernatant on ice for 30 minutes. […] Median fluorescence intensity (MFI) of anti-mouse-APC MFI on TMEM106B+ HEK293 cells was calculated for each clone, and those displaying a signal of at least 2-fold over background compared to a secondary-antibody only well were taken forward for further analysis and characterization.

In order of falling “fold-change over parental HEK293” value:
1. B5  18.8 fold
2. B1  17.3 fold
3. B7  16 fold
4. B8  15.6 fold
5. B3  13.8 fold
6. B6  9.84 fold
7. B2  4.72 fold

Molecular target: T5, cynomolgus (cyno) TMEM106B (cynomolgus, UniProt Q9NUM4 2-274 (human entry))
T5 construct: on transiently transfected HEK293 cells
Experiment: FACS, HEK293 transfectants;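 for fold over negative controls: hybridoma supernatants incubated 30 min on ice with human TMEM106B-expressing HEK293 cells, binding read as anti-mouse-APC median fluorescence on live cells, relative to secondary-antibody-only wells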;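 for fold-change over parental HEK293: flow cytometry binding of hybridoma supernatants to HEK293 cells transiently expressing human, cyno or mouse TMEM106B, read as anti-mouse-APC median fluorescence, live cells only, 30 min on ice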
Method: as §5

In order of rising “fold-change over parental HEK293” value:
1. B2  11.7 fold
2. B8  13.8 fold
3. B7  17.8 fold
4. B1  22.6 fold
5. B6  32.3 fold
6. B3  34.9 fold
7. B5  38.8 fold

Molecular target: T2, mouse TMEM106B
Experiment: FACS, HEK293 transfectants;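 for fold over negative controls: hybridoma supernatants incubated 30 min on ice with human TMEM106B-expressing HEK293 cells, binding read as anti-mouse-APC median fluorescence on live cells, relative to secondary-antibody-only wells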;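 for fold-change over parental HEK293: flow cytometry binding of hybridoma supernatants to HEK293 cells transiently expressing human, cyno or mouse TMEM106B, read as anti-mouse-APC median fluorescence, live cells only, 30 min on ice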
Method: as §5

In order of rising “fold-change over parental HEK293” value:
1. B1  0.67 fold
2. B2  4.61 fold
3. B6  17.5 fold
4. B7  17.5 fold
5. B8  21.3 fold
6. B5  29 fold
7. B3  36 fold

Molecular target: T1, human TMEM106B
Experiment: FACS HEK+huTMEM, 0.1 ug/ml;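 note: flow cytometry binding of purified mouse IgG antibodies to HEK293 cells transiently expressing TMEM106B, read as median fluorescence intensity with propidium iodide positive dead cells gated out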

In order of falling MFI:
1. B3  29800
2. B5  10600
3. B6  4730
4. B8  3030
5. B1  1940
6. B2  1330
7. B4  833
8. B7  305

Molecular target: T1, human TMEM106B
Experiment: FACS HEK+huTMEM, 1.0 ug/ml

In order of rising MFI:
1. B7  314
2. B2  2010
3. B4  2100
4. B1  8200
5. B8  15700
6. B6  29300
7. B3  66800
8. B5  67300

Molecular target: T1, human TMEM106B
Experiment: FACS HEK+huTMEM, 0.01 ug/ml
Method: as §4

In order of falling MFI:
1. B3  3340
2. B5  1740
3. B6  1440
4. B8  756
5. B2  655
6. B4  500
7. B1  451
8. B7  294

Molecular target: T1, human TMEM106B
Experiment: FACS titration on cells, apparent
Method: as §4

In order of falling Kd:
1. B2  ~1 nM
2. B3  ~1 nM
3. B5  ~1 nM

Molecular target: T4, GST-fusion human TMEM106B truncated
Experiment: epitope binning, array SPR (Community 3, Bin 5)
Method: Epitope binning of the anti-TMEM106B antibodies was performed by Carterra (Salt Lake City, Nevada, USA) using a pre-mix epitope binning approach.

B1: no binding (tested: 55 nM antigen).
B7: no binding (tested: 55 nM antigen).
B8: no binding (tested: 55 nM antigen).
